{"source": "paper PMC2756588"}
{"molecular_target": "T1, Lsb3, P43603", "T1 sequence (P43603 385-451, looked up)": "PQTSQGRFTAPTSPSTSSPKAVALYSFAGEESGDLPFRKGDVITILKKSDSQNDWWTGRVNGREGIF", "experiment": "SPOT array", "conditions": "median of control spots 406"}
{"binder": "VNFRRIPTGPDSPPT", "SPOT intensity": 2}
{"binder": "KRKRFNLLLPKPYLT", "SPOT intensity": 0}
{"binder": "HRRRRVFSIPSLKSI", "SPOT intensity": 5}
{"molecular_target": "Myo3, P36006", "experiment": "SPOT array", "conditions": "median of control spots 468"}
{"binder": "VNFRRIPTGPDSPPT", "SPOT intensity": 0}
{"binder": "KRKRFNLLLPKPYLT", "SPOT intensity": 0}
{"binder": "HRRRRVFSIPSLKSI", "SPOT intensity": 6}
{"molecular_target": "T2, Fus1, P11710", "T2 sequence (P11710 432-512, looked up)": "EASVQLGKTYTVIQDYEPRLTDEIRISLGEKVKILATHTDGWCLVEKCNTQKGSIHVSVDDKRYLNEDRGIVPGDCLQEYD", "experiment": "SPOT array", "conditions": "median of control spots 1200"}
{"binder": "VNFRRIPTGPDSPPT", "SPOT intensity": 0}
{"binder": "KRKRFNLLLPKPYLT", "SPOT intensity": 64}
{"binder": "HRRRRVFSIPSLKSI", "SPOT intensity": 136}
{"molecular_target": "T3, Boi2, P39969", "T3 sequence (P39969 32-116, looked up)": "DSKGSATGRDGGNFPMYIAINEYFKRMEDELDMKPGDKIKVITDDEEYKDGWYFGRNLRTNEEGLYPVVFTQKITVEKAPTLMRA", "experiment": "SPOT array", "conditions": "median of control spots 1161"}
{"binder": "VNFRRIPTGPDSPPT", "SPOT intensity": 0}
{"binder": "KRKRFNLLLPKPYLT", "SPOT intensity": 2}
{"binder": "HRRRRVFSIPSLKSI", "SPOT intensity": 4}
{"molecular_target": "T4, Bbc1, P47068", "T4 sequence (P47068 1-78, looked up)": "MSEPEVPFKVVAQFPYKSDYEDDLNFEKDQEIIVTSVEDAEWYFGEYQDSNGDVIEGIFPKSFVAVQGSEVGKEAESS", "experiment": "SPOT array", "conditions": "median of control spots 796"}
{"binder": "VNFRRIPTGPDSPPT", "SPOT intensity": 2}
{"binder": "KRKRFNLLLPKPYLT", "SPOT intensity": 175}
{"binder": "HRRRRVFSIPSLKSI", "SPOT intensity": 395}
{"molecular_target": "T5, Sla1-2, P32790", "T5 sequence (P32790 60-140, looked up)": "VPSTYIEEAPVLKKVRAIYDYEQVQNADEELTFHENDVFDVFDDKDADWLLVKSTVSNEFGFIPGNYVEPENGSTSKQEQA", "experiment": "SPOT array", "conditions": "median of control spots 712"}
{"binder": "VNFRRIPTGPDSPPT", "SPOT intensity": 0}
{"binder": "KRKRFNLLLPKPYLT", "SPOT intensity": 2}
{"binder": "HRRRRVFSIPSLKSI", "SPOT intensity": 0}
{"molecular_target": "T6, Pin3, Q06449", "T6 sequence (Q06449 53-122, looked up)": "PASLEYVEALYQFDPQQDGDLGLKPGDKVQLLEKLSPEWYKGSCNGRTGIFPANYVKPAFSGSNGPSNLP", "experiment": "SPOT array", "conditions": "median of control spots 2171"}
{"binder": "VNFRRIPTGPDSPPT", "SPOT intensity": 0}
{"binder": "KRKRFNLLLPKPYLT", "SPOT intensity": 0}
{"binder": "HRRRRVFSIPSLKSI", "SPOT intensity": 7}
{"molecular_target": "T7, Bzz1-1, P38822", "T7 sequence (P38822 478-572, looked up)": "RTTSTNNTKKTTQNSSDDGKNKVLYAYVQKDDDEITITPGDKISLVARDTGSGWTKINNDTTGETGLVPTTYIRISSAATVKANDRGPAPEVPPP", "experiment": "SPOT array", "conditions": "median of control spots 4446"}
{"binder": "VNFRRIPTGPDSPPT", "SPOT intensity": 0}
{"binder": "KRKRFNLLLPKPYLT", "SPOT intensity": 3}
{"binder": "HRRRRVFSIPSLKSI", "SPOT intensity": 3}
{"molecular_target": "T8, Hse1, P38753", "T8 sequence (P38753 208-285, looked up)": "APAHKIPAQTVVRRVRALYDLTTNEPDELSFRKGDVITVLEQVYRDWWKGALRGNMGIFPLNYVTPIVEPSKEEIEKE", "experiment": "SPOT array", "conditions": "median of control spots 1727"}
{"binder": "VNFRRIPTGPDSPPT", "SPOT intensity": 4}
{"binder": "KRKRFNLLLPKPYLT", "SPOT intensity": 12}
{"binder": "HRRRRVFSIPSLKSI", "SPOT intensity": 19}
{"molecular_target": "T9, Boi1, P38041", "T9 sequence (P38041 1-86, looked up)": "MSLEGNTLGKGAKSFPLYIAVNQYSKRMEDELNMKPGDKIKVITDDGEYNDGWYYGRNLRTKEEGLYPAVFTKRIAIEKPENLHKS", "experiment": "SPOT array", "conditions": "median of control spots 1162"}
{"binder": "VNFRRIPTGPDSPPT", "SPOT intensity": 0}
{"binder": "KRKRFNLLLPKPYLT", "SPOT intensity": 9}
{"binder": "HRRRRVFSIPSLKSI", "SPOT intensity": 15}
{"molecular_target": "GST", "experiment": "SPOT array", "conditions": "median of control spots 978"}
{"binder": "VNFRRIPTGPDSPPT", "SPOT intensity": 0}
{"binder": "KRKRFNLLLPKPYLT", "SPOT intensity": 2}
{"binder": "HRRRRVFSIPSLKSI", "SPOT intensity": 1}
{"molecular_target": "T10, Hof1, Q05080", "T10 sequence (Q05080 590-669, looked up)": "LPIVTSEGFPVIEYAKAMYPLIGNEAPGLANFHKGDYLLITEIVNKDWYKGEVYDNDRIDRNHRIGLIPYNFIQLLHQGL", "experiment": "SPOT array", "conditions": "median of control spots 4086"}
{"binder": "VNFRRIPTGPDSPPT", "SPOT intensity": 3}
{"binder": "KRKRFNLLLPKPYLT", "SPOT intensity": 4}
{"binder": "HRRRRVFSIPSLKSI", "SPOT intensity": 17}
{"molecular_target": "Bem1-1, P29366", "sequence (P29366 55-141)": "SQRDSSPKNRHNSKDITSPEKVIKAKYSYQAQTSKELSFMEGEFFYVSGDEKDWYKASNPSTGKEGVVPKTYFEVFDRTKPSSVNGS", "experiment": "SPOT array", "conditions": "median of control spots 4282"}
{"binder": "VNFRRIPTGPDSPPT", "SPOT intensity": 0}
{"binder": "KRKRFNLLLPKPYLT", "SPOT intensity": 3}
{"binder": "HRRRRVFSIPSLKSI", "SPOT intensity": 1}
{"molecular_target": "T11, Cdc25, P04821", "T11 sequence (P04821 50-136, looked up)": "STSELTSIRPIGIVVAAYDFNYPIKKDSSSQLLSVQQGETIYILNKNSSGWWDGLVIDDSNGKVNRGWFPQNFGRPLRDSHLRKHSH", "experiment": "SPOT array", "conditions": "median of control spots 969"}
{"binder": "VNFRRIPTGPDSPPT", "SPOT intensity": 0}
{"binder": "KRKRFNLLLPKPYLT", "SPOT intensity": 32}
{"binder": "HRRRRVFSIPSLKSI", "SPOT intensity": 131}
{"molecular_target": "T12, Lsb4, P32793", "T12 sequence (P32793 402-468, looked up)": "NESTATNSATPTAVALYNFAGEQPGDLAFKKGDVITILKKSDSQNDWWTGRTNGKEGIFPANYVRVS", "experiment": "SPOT array", "conditions": "median of control spots 397"}
{"binder": "VNFRRIPTGPDSPPT", "SPOT intensity": 2}
{"binder": "KRKRFNLLLPKPYLT", "SPOT intensity": 1}
{"binder": "HRRRRVFSIPSLKSI", "SPOT intensity": 10}
{"molecular_target": "T13, Sla1-3, P32790", "T13 sequence (P32790 344-424, looked up)": "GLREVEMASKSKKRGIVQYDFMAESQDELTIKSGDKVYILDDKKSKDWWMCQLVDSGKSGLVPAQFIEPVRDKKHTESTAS", "experiment": "SPOT array", "conditions": "median of control spots 5475"}
{"binder": "VNFRRIPTGPDSPPT", "SPOT intensity": 17}
{"binder": "KRKRFNLLLPKPYLT", "SPOT intensity": 34}
{"binder": "HRRRRVFSIPSLKSI", "SPOT intensity": 117}
{"molecular_target": "T14, Nbp2, Q12163", "T14 sequence (Q12163 103-180, looked up)": "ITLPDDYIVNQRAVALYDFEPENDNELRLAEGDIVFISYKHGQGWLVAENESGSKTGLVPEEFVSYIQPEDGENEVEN", "experiment": "SPOT array", "conditions": "median of control spots 357"}
{"binder": "VNFRRIPTGPDSPPT", "SPOT intensity": 0}
{"binder": "KRKRFNLLLPKPYLT", "SPOT intensity": 53}
{"binder": "HRRRRVFSIPSLKSI", "SPOT intensity": 176}
{"molecular_target": "T15, Bud14, P27637", "T15 sequence (P27637 247-328, looked up)": "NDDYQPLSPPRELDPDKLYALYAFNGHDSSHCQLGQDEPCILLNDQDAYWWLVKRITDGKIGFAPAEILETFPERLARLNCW", "experiment": "SPOT array", "conditions": "median of control spots 956"}
{"binder": "VNFRRIPTGPDSPPT", "SPOT intensity": 3}
{"binder": "KRKRFNLLLPKPYLT", "SPOT intensity": 34}
{"binder": "HRRRRVFSIPSLKSI", "SPOT intensity": 64}
{"molecular_target": "T16, Cyk3, Q07533", "T16 sequence (Q07533 1-83, looked up)": "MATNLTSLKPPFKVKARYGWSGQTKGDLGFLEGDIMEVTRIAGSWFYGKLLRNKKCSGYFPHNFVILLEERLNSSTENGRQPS", "experiment": "SPOT array", "conditions": "median of control spots 1451"}
{"binder": "VNFRRIPTGPDSPPT", "SPOT intensity": 0}
{"binder": "KRKRFNLLLPKPYLT", "SPOT intensity": 3}
{"binder": "HRRRRVFSIPSLKSI", "SPOT intensity": 5}
{"molecular_target": "Rvs167, P39743", "sequence (P39743 419-482)": "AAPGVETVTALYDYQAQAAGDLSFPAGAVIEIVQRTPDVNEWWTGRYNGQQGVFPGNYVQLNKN", "experiment": "SPOT array", "conditions": "median of control spots 2707"}
{"binder": "VNFRRIPTGPDSPPT", "SPOT intensity": 2}
{"binder": "KRKRFNLLLPKPYLT", "SPOT intensity": 3}
{"binder": "HRRRRVFSIPSLKSI", "SPOT intensity": 3}
{"molecular_target": "Sho1, P40073", "sequence (P40073 287-367)": "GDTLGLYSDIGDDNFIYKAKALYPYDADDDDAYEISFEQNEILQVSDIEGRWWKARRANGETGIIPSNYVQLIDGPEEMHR", "experiment": "SPOT array", "conditions": "median of control spots 1148"}
{"binder": "VNFRRIPTGPDSPPT", "SPOT intensity": 19}
{"binder": "KRKRFNLLLPKPYLT", "SPOT intensity": 98}
{"binder": "HRRRRVFSIPSLKSI", "SPOT intensity": 123}
{"molecular_target": "T17, Bzz1-2, P38822", "T17 sequence (P38822 568-633, looked up)": "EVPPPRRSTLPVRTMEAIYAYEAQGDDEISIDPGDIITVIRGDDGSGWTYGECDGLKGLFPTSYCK", "experiment": "SPOT array", "conditions": "median of control spots 4538"}
{"binder": "VNFRRIPTGPDSPPT", "SPOT intensity": 3}
{"binder": "KRKRFNLLLPKPYLT", "SPOT intensity": 6}
{"binder": "HRRRRVFSIPSLKSI", "SPOT intensity": 5}
{"molecular_target": "T18, Myo5, Q04439", "T18 sequence (Q04439 1072-1160, looked up)": "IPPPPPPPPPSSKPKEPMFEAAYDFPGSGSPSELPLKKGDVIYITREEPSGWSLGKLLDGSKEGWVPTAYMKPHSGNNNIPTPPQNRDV", "experiment": "SPOT array", "conditions": "median of control spots 471"}
{"binder": "VNFRRIPTGPDSPPT", "SPOT intensity": 0}
{"binder": "KRKRFNLLLPKPYLT", "SPOT intensity": 0}
{"binder": "HRRRRVFSIPSLKSI", "SPOT intensity": 0}
{"molecular_target": "T19, Pex13, P80667", "T19 sequence (P80667 295-386, looked up)": "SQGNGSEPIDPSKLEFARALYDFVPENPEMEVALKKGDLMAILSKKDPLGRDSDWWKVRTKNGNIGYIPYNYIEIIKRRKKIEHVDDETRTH", "experiment": "SPOT array", "conditions": "median of control spots 1341"}
{"binder": "VNFRRIPTGPDSPPT", "SPOT intensity": 6}
{"binder": "KRKRFNLLLPKPYLT", "SPOT intensity": 3}
{"binder": "HRRRRVFSIPSLKSI", "SPOT intensity": 4}
{"molecular_target": "Bem1-2, P29366", "sequence (P29366 139-227)": "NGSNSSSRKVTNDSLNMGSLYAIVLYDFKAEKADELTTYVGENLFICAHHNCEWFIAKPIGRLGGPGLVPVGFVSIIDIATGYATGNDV", "experiment": "SPOT array", "conditions": "median of control spots 4347"}
{"binder": "VNFRRIPTGPDSPPT", "SPOT intensity": 0}
{"binder": "KRKRFNLLLPKPYLT", "SPOT intensity": 4}
{"binder": "HRRRRVFSIPSLKSI", "SPOT intensity": 8}
{"molecular_target": "T20, Abp1, P15891", "T20 sequence (P15891 535-592, looked up)": "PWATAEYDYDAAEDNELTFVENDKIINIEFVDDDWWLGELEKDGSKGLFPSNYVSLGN", "experiment": "SPOT array", "conditions": "median of control spots 935"}
{"binder": "VNFRRIPTGPDSPPT", "SPOT intensity": 5}
{"binder": "KRKRFNLLLPKPYLT", "SPOT intensity": 72}
{"binder": "HRRRRVFSIPSLKSI", "SPOT intensity": 158}
{"molecular_target": "T21, Lsb1, P53281", "T21 sequence (P53281 45-122, looked up)": "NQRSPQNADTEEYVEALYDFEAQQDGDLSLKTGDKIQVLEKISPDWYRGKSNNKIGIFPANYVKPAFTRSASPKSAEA", "experiment": "SPOT array", "conditions": "median of control spots 388"}
{"binder": "VNFRRIPTGPDSPPT", "SPOT intensity": 0}
{"binder": "KRKRFNLLLPKPYLT", "SPOT intensity": 0}
{"binder": "HRRRRVFSIPSLKSI", "SPOT intensity": 114}
